In patent US20030003563, “Method of using a crystal of the N-terminal domain of a signal transducer and activator of transcription” (published 2003):

B1: luciferase reporter enhancer with two weak STAT-1 sites (dsDNA)
DNA 1: GATCAGTTCCCGTCAATCATGATCCAGTTCCCGTCAATGATCCCCGGGATC
DNA 2: GATCCCGGGGATCATTGACGGGAACTGGATCATGATTGACGGGAACTGATC
B2: single M67 site (dsDNA)
DNA 1: GCCGATTTCCCGTAAATCAT
DNA 2: ATGATTTACGGGAAATCGGC

What was measured:
[1] = target: STAT-1alpha wild type (transfected, U3A cells) (Homo sapiens, UniProt P42224 P42224:2-750); experiment: cell_activity; IFN-gamma 5 ng/ml, 10 h, luciferase in U3A cells; conditions: tags: pcDNA3 expression
Description: FIG. 4B show the effect of STAT-1 W37A mutation on interferon-γ (IFN-γ) stimulated gene activation in vivo. U3A cells that are lacking STAT-1 [Miller et al., EMBO J. 12:4221 (1993)] were transfected with expression clones containing either wild type or mutant STAT-1 (see Methods of the EXAMPLE, below) along with a luciferase reporter containing a tandem STAT binding site as an enhancer. After stimulation with IFN-γ for 10 hours, luciferase expression was determined spectroscopically (represented as bars). Cells transfected with the wild type protein show an about 2-fold increase in luciferase expression. […] Each bar represents ten individual parallel experiments. Error bars denote standard deviation from the mean.
Transient transfections were performed on six well plates with 50% confluent U3A cells using the calcium phosphate method as instructed by the manufacturer (Stratagene) with the following modifications. Transfection reactions contained per well 4.5 μg of either wild type STAT-1α or the W37A mutant in plasmid pcDNA3 (Invitrogen), 4 μg luciferase reporter plasmid pLuc, and 0.4 μg β-galactosidase reporter plasmid (Stratagene).
The luciferase reporter contained in its BamH1 site as an enhancer element two tandemly arranged “weak” STAT-1 binding sites (5′-[…]-3′, binding sites underlined) from the human c-fos promoter. […]

[2] = target: STAT-1alpha W37A (Tyr-phosphorylated) (Homo sapiens, UniProt P42224 P42224:2-750, W37A); experiment: EMSA; used to titrate active protein; conditions: tags: C-terminal 6xHis; baculovirus insect cells; chain copies: 2 (dimer; stated)
From the text: (§1) Gel shift experiments and determination of tetramer stability were done as described [Vinkemeier et al., EMBO J. 15:5616 (1996)] with an oligonucleotide containing two copies of the STAT recognition element from the c-fos gene [Wagner et al., EMBO J. 9:4477 (1990)] spaced by 10 base pairs (5′-[…]-3′). Both protein preparations (Tyr-phosphorylated wild type STAT-1α and W37A mutant) were titrated in gel shift experiments with an oligonucleotide containing a single M67 site (5′-[…]-3′) [Wagner et al., EMBO J. 9:4477 (1990)] to assure similar loading of active protein. […] The time necessary to reach equilibrium was assessed by EMSA [(Stone et al., in Jost, J. P. & Saluz, H. P. (eds.) A Laboratory Guide to In Vitro Studies of Protein-DNA Interactions BioMethods, vol.5:163-195 (1991)]. For all DNA fragments tested, equilibrium turned out to be fully established at the earliest timepoint that can be determined by this technique (30 sec). Therefore incubation periods of 5-15 minutes were chosen. Reaction products were loaded onto a 4% polyacrylamide gel (1.5 mm thick) containing 0.25× Tris-borate-EDTA which had been pre-run at 20V/cm for 2 hours at 4° C. Electrophoresis was continued for 60 minutes at 4° C. Gels were dried and exposed to X-ray film and quantitated by a Molecular Dynamics Phospholmager.

[3] = target: STAT-1alpha (Tyr-phosphorylated, wild type) (Homo sapiens, UniProt P42224 P42224:2-750); experiment: EMSA; used to titrate active protein; conditions: tags: in vitro Tyr-phosphorylated with EGF-receptor kinase; chain copies: 4 (two dimers on tandem site; stated)
From the text: as §1

STAT-1alpha wild type (transfected, U3A cells), sequence (P42224 2-750, one chain of several): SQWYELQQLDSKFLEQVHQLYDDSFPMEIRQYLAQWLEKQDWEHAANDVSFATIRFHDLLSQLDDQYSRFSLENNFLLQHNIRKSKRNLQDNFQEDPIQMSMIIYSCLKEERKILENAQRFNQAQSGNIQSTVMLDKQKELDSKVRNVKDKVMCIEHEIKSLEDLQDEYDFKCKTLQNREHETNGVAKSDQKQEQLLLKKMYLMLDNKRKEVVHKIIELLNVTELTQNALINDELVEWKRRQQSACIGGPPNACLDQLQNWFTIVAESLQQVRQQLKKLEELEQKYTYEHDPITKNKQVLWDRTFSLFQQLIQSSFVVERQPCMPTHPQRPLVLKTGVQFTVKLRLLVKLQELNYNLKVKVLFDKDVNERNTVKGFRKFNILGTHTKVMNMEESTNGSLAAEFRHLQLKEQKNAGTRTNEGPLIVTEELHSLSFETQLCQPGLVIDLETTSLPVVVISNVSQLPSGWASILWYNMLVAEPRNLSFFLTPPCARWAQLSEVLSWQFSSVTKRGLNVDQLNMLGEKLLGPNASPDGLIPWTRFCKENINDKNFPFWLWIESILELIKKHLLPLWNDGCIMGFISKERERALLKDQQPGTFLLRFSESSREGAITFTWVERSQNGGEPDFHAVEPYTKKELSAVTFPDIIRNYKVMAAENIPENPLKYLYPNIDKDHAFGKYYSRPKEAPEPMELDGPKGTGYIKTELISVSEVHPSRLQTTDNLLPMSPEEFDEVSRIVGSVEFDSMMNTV
STAT-1alpha (Tyr-phosphorylated, wild type), sequence (P42224 2-750, one chain of several): as above
STAT-1alpha W37A (Tyr-phosphorylated), sequence (P42224 2-750 W37A, one chain of several): as the sequence (P42224 2-750, one chain of several) above, with W36A counted along it

Row | Binder | activity [1] [fold induction] | binding result [2] | binding result [3]
1 | B1 | ~2 | – | –
2 | B2 | – | binds | binds
